# According to patent US20220281976A1 (Alector, published 2022):
# Numbering of substitutions follows the chain as printed.
# T1: mouse CD33 Fc fusion protein (mouse, UniProt Q63994 18-240, limits assumed)
# T1 construct: also called mCD33-Fc
# T1 sequence: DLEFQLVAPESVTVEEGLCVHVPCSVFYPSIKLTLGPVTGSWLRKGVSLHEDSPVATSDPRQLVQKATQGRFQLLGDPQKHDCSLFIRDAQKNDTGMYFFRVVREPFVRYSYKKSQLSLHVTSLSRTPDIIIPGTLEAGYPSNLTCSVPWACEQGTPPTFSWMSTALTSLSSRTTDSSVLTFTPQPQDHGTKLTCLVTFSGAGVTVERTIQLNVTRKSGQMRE
# B1: C-45 (antibody, V domains shown)
# VH: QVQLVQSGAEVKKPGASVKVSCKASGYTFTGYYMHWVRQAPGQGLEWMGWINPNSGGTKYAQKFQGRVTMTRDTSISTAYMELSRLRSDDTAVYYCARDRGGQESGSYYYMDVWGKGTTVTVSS
# VL: DIQMTQSPSSVSASVGDRVTITCRASQGISSWLAWYQQKPGKAPKLLIYAASSLQSGVPSRFSGSGSGTDFTLTISSLQPEDFATYYCQQAYSFPTFGGGTKVEIK
# notes: human IgG1
# B2: C-40 (antibody, V domains shown)
# VH: EVQLVESGGGLVQPGGSLRLSCAASGFTFSSYWMSWVRQAPGKGLEWVANIKQDGSEKYYVDSVKGRFTISRDNAKNSLYLQMNSLRAEDTAVYYCAREGGYVGHGMDVWGQGTTVTVSS
# VL: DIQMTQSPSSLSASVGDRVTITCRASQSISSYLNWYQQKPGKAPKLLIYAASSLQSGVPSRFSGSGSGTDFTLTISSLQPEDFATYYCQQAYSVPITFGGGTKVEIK
# notes: human IgG1
# B3: C-38 (antibody, V domains shown)
# VH: QLQLQESGPGLVKPSETLSLTCTVSGGSISSSSYYWGWIRQPPGKGLEWIGSIYYSGSTYYNPSLKSRVTISVDTSKNQFSLKLSSVTAADTAVYYCAREATAAADHPGMDVWGQGTTVTVSS
# VL: DIQMTQSPSSLSASVGDRVTITCQASQDITNYLNWYQQKPGKAPKLLIYDASNLETGVPSRFSGSRSGTDFTFTISSLQPEDIATYYCQQYHDFPTFGGGTKVEIK
# notes: human IgG1
# B4: C-39 (antibody, V domains shown)
# VH: QLQLQESGPGLVKPSETLSLTCTVSGGSISSSSYYWGWIRQPPGKGLEWIGSIYYSGSTYYNPSLKSRVTISVDTSKNQFSLKLSSVTAADTAVYYCAREGVRGMDVWGQGTTVTVSS
# VL: EIVLTQSPGTLSLSPGERATLSCRASQSVSSSYLAWYQQKPGQAPRLLIYGASSRATGIPDRFSGSGSGTDFTLTISRLEPEDFAVYYCQQFAFLPPTFGGGTKVEIK
# notes: human IgG1
# B5: C-5 (antibody, V domains shown)
# VH: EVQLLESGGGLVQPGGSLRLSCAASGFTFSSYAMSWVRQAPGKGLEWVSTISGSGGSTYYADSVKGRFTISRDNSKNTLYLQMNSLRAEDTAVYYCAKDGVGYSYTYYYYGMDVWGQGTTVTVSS
# VL: B4 VL with Y33F, F92V, A93S, F94S, L95F
# notes: human IgG1
# B6: C-41 (antibody, V domains shown)
# VH: B4 VH with Y54S, V102G, R103K, T113L
# VL: EIVLTQSPGTLSLSPGERATLSCRASQSVSSSFLAWYQQKPGQAPRLLIYGASSRATGIPDRFSGSGSGTDFTLTISRLEPEDFAVYYCQQFGDLPTFGGGTKVEIK
# notes: human IgG1
# B7: C-1 (antibody, V domains shown)
# VH: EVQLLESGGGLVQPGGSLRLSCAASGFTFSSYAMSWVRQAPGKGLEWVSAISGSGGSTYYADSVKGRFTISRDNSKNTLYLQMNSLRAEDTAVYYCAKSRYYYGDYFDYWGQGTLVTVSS
# VL: EIVLTQSPATLSLSPGERATLSCRASQSVSSYLAWYQQKPGQAPRLLIYDASNRATGIPARFSGSGSGTDFTLTISSLEPEDFAVYYCQQYYFWPLTFGGGTKVEIK
# notes: full-length human IgG1
# B8: C-62 (antibody, V domains shown)
# VH: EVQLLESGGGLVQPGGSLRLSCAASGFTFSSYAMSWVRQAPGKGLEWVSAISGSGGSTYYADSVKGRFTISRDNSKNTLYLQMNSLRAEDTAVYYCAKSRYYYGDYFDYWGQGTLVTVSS
# VL: EIVMTQSPATLSVSPGERATLSCRASQSVSSNLAWYQQKPGQAPRLLIYGASTRATGIPARFSGSGSGTEFTLTISSLQSEDFAVYYCQQFSNWPLTFGGGTKVEIK
# notes: human IgG1
# B9: C-37 (antibody, V domains shown)
# VH: QLQLQESGPGLVKPSETLSLTCTVSGGSISSSSYYWGWIRQPPGKGLEWIGSISYSGSTYYNPSLKSRVTISVDTSKNQFSLKLSSVTAADTAVYYCAREHRAADAGSNVWGQGTMVTVSS
# VL: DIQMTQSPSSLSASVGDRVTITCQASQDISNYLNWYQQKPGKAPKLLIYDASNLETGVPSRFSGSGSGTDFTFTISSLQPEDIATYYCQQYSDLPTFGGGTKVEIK
# notes: human IgG1
# B10: C-44 (antibody, V domains shown)
# VH: B9 VH with Y35A, S54Y, H101G, R102Y, A103V, D105A, A106Y, S108M, N109D, M116T
# VL: DIQMTQSPSSLSASVGDRVTITCRASQSISSYLNWYQQKPGKAPKLLIYAASSLQSGVPSRFSGSGSGTDFTLTISSLQPEDFATYYCQQAYYPPWTFGGGTKVEIK
# notes: human IgG1
# B11: C-67 (antibody, V domains shown)
# VH: B9 VH with S54Y, H101V, R102S, A103G, A104T, D105R, A106H, S108M, N109D, M116T
# VL: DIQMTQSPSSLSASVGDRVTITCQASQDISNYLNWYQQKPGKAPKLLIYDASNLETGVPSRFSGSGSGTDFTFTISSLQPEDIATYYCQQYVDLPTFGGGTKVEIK
# notes: human IgG1
# B12: C-43 (antibody, V domains shown)
# VH: QVQLVQSGAEVKKPGASVKVSCKASGYTFTSYYMHWVRQAPGQGLEWMGVINPSGGSTSYAQKFQGRVTMTRDTSTSTVYMELSSLRSEDTAVYYCAREEAVAADLGVDVWGQGTTVTVSS
# VL: not shown
# notes: human IgG1
# Biological target: T2, human CD33 Fc fusion protein (human, UniProt P20138 18-259)
# T2 construct: also called hCD33-Fc; human CD33/Fc chimera (R&D Systems)
# Test: RBC adhesion to plate-bound CD33-Fc; antibody 1.0 ug/ml;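 also: red blood cells adhering to plate-coated CD33-Fc after 1 h antibody pretreatment, then 1 h at room temperature, bound cells read as peroxidase activity after lysis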
# T2 sequence (P20138 18-259 limits assumed): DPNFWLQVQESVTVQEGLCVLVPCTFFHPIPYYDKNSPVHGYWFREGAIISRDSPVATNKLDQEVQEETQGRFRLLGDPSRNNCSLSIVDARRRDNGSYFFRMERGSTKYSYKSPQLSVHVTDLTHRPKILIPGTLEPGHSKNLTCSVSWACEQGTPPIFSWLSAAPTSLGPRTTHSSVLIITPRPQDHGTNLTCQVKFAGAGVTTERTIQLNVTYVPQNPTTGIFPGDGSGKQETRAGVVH
row,Binder,Percent RBC Binding to CD33 [%]
1,B1,110
2,B2,12.1
3,B3,10.3
4,B4,5.11
5,B5,13.8
6,B6,8.19
7,B7,91.5
8,B8,84
9,B9,5.6
10,B10,10.5
11,B11,10.7
12,B12,8.99

# Biological target: T3, human CD33 (human, UniProt P20138 18-364)
# T3 construct: CD33 on human primary dendritic cells, macrophages, monocytes and T cells and on CHO cells expressing recombinant human CD33; also called Siglec-3; hCD33
# Test: flow cytometry, human primary dendritic cells;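 also: binding of anti-CD33 antibodies (10 ug/ml, 1 h on ice) to human primary dendritic cells, detected with a PE-labelled secondary antibody, reported as flow cytometry MFI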
# T3 sequence (P20138 18-364): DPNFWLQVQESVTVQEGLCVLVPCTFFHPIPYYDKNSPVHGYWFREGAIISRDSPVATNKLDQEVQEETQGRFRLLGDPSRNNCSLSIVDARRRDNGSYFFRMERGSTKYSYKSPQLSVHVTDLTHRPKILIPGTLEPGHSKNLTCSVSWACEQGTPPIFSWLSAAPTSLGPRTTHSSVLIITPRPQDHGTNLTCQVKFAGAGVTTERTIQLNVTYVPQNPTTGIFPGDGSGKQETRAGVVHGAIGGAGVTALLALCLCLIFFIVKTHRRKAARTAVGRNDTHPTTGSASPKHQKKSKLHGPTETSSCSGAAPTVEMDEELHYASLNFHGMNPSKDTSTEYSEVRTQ
row,Binder,DC MFI
1,B1,1150
2,B2,1470
3,B3,1740
4,B4,2000
5,B5,1460
6,B6,1810
7,B7,1440
8,B8,1660
9,B9,1840
10,B10,1520
11,B11,1420
12,B12,1500

# Biological target: T4, human monomeric His tagged CD33 protein (human, UniProt P20138 18-259)
# T4 construct: also called hCD33-His
# Test: ForteBio BLI or MSD-SET, IgG, monomeric antigen;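 also: BLI: antibodies captured on AHQ sensors, 100 nM antigen association 5 min, dissociation 5 min, 1:1 fit. MSD-SET: antigen fixed at 50 pM, antibody titrated, quadratic fit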
# T4 sequence (P20138 18-259 limits assumed): as the sequence (P20138 18-259 limits assumed) above
row,Binder,Kd [nM]
1,B1,12.8
2,B2,10.6
3,B3,5.25
4,B4,9.97
5,B5,15.6
6,B6,4.37
7,B7,9.69
8,B8,23.6
9,B9,2.72
10,B10,2.62
11,B11,5.33
12,B12,9.04

# Biological target: T3, human CD33
# Test: flow cytometry, human primary macrophages;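 also: binding of CD33 antibodies at 10 µg/ml to human primary macrophages, 1 h on ice, detected with PE-labelled secondary antibody by flow cytometry, reported as MFI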
row,Binder,Macrophage MFI
1,B1,1010
2,B2,663
3,B3,904
4,B4,802
5,B5,866
6,B6,945
7,B7,924
8,B8,520
9,B9,952
10,B10,892
11,B11,831
12,B12,908

# Biological target: T2, human CD33 Fc fusion protein
# Test: ForteBio BLI or MSD-SET, IgG, avid;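 also: Anti-CD33 IgG affinity by BLI, IgG captured on AHQ sensors with antigen in solution and a one-to-one kinetic fit, or by MSD solution equilibrium titration with quadratic fit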
# Procedure: The binding affinity of each anti-CD33 antibody was determined by measuring their KD by ForteBio or MSD-SET. […] Briefly, ForteBio affinity measurements were performed by loading IgGs on-line onto AHQ sensors. Sensors were equilibrated off-line in assay buffer for 30 min and then monitored on-line for 60 seconds for baseline establishment. Sensors with loaded IgGs were exposed to 100 nM antigen for 5 minutes, then transferred to assay buffer for 5 min for off-rate measurement. Kinetics were analyzed using the 1:1 binding model.
# Solution equilibrium titrations (SET) were performed in PBS+0.1% IgG-Free BSA (PBSF) with antigen held constant at 50 pM and incubated with 3-to 5-fold serial dilutions of antibody starting at 10 nM. Antibodies (20 nM in PBS) were coated onto standard bind MSD-ECL plates overnight at 4° C. or at room temperature for 30 min. Plates were then blocked for 30 min with shaking at 700 rpm, followed by three washes with wash buffer (PBSF+0.05% Tween 20). SET samples were applied and incubated on the plates for 150s with shaking at 700 rpm followed by one wash. Antigen captured on a plate was detected with 250 ng/mL sulfotag-labeled streptavidin in PBSF by incubation on the plate for 3 min. The plates were washed three times with wash buffer and then read on the MSD Sector Imager 2400 instrument using 1× Read Buffer T with surfactant. The percent free antigen was plotted as a function of titrated antibody in Prism and fit to a quadratic equation to extract the KD. To improve throughput, liquid handling robots were used throughout MSD-SET experiments, including SET sample preparation.
row,Binder,Kd [nM]
1,B1,2.25
2,B2,1.86
3,B3,1.28
4,B4,2.06
5,B5,3.17
6,B6,1.06
7,B7,2.53
8,B8,4.07
9,B9,0.409
10,B10,0.612
11,B11,1.19
12,B12,2.06

# Biological target: T3, human CD33
# Test: flow cytometry, human primary monocytes;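 also: binding of anti-CD33 antibodies at 10 ug/ml to human primary monocytes, 1 h on ice, detected by PE-labelled secondary antibody, flow cytometry readout as mean fluorescence intensity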
# Set-up: reference not given here
row,Binder,Monocyte MFI
1,B1,182
2,B2,76
3,B3,166
4,B4,181
5,B5,177
6,B6,180
7,B7,177
8,B8,197
9,B9,203
10,B10,161
11,B11,151
12,B12,151

# Biological target: T1, mouse CD33 Fc fusion protein
# Test: ForteBio BLI or MSD-SET
row,Binder,binding result
1,B1,no binding (tested: 100 nM)
2,B2,no binding (tested: 100 nM)
3,B3,no binding (tested: 100 nM)
4,B4,no binding (tested: 100 nM)
5,B5,no binding (tested: 100 nM)
6,B6,no binding (tested: 100 nM)
7,B7,no binding (tested: 100 nM)
8,B8,no binding (tested: 100 nM)
9,B9,no binding (tested: 100 nM)
10,B10,no binding (tested: 100 nM)
11,B11,no binding (tested: 100 nM)
12,B12,no binding (tested: 100 nM)

# Biological target: T3, human CD33
# Test: flow cytometry, human primary T cells;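 also: binding of anti-CD33 antibodies at 10 ug/ml to human primary T cells, 1 h on ice, detected with PE-labelled secondary antibody, read as flow cytometry MFI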
row,Binder,T cell MFI
1,B1,55.4
2,B2,210
3,B3,267
4,B4,1210
5,B5,357
6,B6,208
7,B7,461
8,B8,96.4
9,B9,213
10,B10,310
11,B11,209
12,B12,192

# Biological target: T3, human CD33
# Test: cell-based or functional assay
Binder,"Percent CD33 Surface Expression, DC % CD33 [%]","Percent CD33 Surface Expression, Monocyte % CD33 [%]","Percent CD33 Surface Expression, Macrophage % CD33 [%]"
B1,65.7,78.2,–
B2,17.8,24.2,35.2
B3,17.9,27.6,49.1
B4,22.8,27.2,46.5
B5,43.1,54.7,73.3
B6,18.6,40.8,39.5
B7,80.9,100,94.4
B8,78.4,87.4,–
B9,19,32.2,55.3
B10,14.7,24.8,57.3
B11,17,23.8,51
B12,24.5,34.9,42.5

# Biological target: T2, human CD33 Fc fusion protein
# Test: RBC adhesion to plate-bound CD33-Fc; antibody 0.5 ug/ml;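 also: Plate-coated CD33-Fc preincubated 1 h with antibody, then red blood cells added for 1 h at room temperature, adherent cells lysed and quantified via peroxidase activity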
row,Binder,Percent RBC Binding to CD33 [%]
1,B1,114
2,B2,19.7
3,B3,15.6
4,B4,12.5
5,B5,19.8
6,B6,10.7
7,B7,93.2
8,B8,95.7
9,B9,11
10,B10,13.3
11,B11,22.9
12,B12,13.8
